Patent US20090155164A1 (Amgen, published 2009)
Read-outs that look alike come from different tables or passages of the source.

Legend:
[1] = target: T1, human c-fms, full length, on cells (human, UniProt P07333 20-972); experiment: cell-based or functional assay
[2] = target: T2, cynomolgus monkey c-fms on primary bone marrow cells (cynomolgus monkey); experiment: cell-based or functional assay
[3] = target: T1, human c-fms, full length, on cells; experiment: cell-based or functional assay; remark: listed apart in the source
[4] = target: T2, cynomolgus monkey c-fms on primary bone …; experiment: cell-based or functional assay; remark: listed apart in the source
[5] = target: T3, monomeric human c-fms (residues 1-512)-pHis (human, UniProt P07333 20-512); experiment: Biacore, low resolution; hybridoma mAb captured on anti-human IgG, monomeric c-fms-pHis analyte at 125 nM
T3 construct: Construct stated as residues 1-512; signal stated as amino acids 1-19 and left out; also called human c-fms (1-512).pHIS; monomeric c-fms
Method: Anti-human IgG was immobilized on all four flow cells of a sensor chip using amine coupling. Crude hybridoma samples were diluted into halves and captured on the anti-IgG surface. […] Sequence lineage analyses were also performed on the 29 hybridomas (see, FIG. 2).

T3 sequence (P07333 20-512): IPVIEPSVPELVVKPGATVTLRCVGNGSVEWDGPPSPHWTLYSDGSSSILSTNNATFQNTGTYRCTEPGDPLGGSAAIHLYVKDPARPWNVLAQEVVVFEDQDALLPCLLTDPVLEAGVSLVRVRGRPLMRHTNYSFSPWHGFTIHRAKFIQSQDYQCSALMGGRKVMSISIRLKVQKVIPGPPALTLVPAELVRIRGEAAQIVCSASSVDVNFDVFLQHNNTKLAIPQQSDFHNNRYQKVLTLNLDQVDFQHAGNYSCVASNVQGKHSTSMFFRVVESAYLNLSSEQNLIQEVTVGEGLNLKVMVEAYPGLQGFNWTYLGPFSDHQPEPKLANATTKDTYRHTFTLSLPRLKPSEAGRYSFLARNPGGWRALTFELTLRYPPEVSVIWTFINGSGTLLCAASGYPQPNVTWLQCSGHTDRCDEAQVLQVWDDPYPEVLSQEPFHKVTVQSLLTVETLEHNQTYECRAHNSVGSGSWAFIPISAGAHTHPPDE
T1 sequence (P07333 20-972): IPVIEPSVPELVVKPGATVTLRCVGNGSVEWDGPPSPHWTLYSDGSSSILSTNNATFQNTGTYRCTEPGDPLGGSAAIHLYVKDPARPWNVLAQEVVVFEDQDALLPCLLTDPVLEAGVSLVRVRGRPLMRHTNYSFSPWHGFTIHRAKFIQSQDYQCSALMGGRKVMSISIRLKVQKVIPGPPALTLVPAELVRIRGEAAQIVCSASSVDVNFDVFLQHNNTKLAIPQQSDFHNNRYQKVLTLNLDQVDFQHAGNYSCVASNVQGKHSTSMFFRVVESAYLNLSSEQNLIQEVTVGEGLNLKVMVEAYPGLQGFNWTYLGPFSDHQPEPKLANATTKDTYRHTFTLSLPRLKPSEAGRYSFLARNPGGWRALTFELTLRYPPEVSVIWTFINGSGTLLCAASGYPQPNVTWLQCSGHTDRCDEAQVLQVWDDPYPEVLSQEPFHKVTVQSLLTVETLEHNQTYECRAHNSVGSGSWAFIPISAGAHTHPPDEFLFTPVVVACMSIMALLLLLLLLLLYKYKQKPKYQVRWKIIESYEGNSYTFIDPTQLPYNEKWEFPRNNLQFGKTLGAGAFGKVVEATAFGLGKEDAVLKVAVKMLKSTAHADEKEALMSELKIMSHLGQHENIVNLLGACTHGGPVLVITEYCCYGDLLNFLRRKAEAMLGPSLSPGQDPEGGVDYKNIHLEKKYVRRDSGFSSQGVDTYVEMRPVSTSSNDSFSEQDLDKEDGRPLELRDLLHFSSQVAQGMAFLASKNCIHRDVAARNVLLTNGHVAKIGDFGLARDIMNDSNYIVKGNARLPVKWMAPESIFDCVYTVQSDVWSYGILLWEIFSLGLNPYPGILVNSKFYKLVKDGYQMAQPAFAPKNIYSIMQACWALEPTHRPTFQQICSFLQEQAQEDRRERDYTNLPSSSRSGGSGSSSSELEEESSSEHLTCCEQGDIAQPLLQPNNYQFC

| AML-5 bioassay IC50 [1] [nM] | Human CD14+ monocytes bioassay IC50 [1] [nM] | Cynomolgus bone marrow bioassay IC50 [2] [nM] | AML-5 bioassay IC50 [3] [ng/mL] | Human CD14+ monocytes bioassay IC50 [3] [ng/mL] | Cynomolgus bone marrow bioassay IC50 [4] [ng/mL] | Kd [5] [nM] | koff [5] [s⁻¹] | kon [5] [M⁻¹ s⁻¹] | Binder |
| --- | --- | --- | --- | --- | --- | --- | --- | --- | --- |
| 0.005 | 0.02 | 0.073 | 0.7 | 3 | 11 | 0.1 | 4.36e-05 | 385000 | anti-c-fms hybridoma antibody 1.109 (antibody, V domains shown, Hybridoma IgG1 (cohort 1)) VH: not shown VL: DIQMTQSPSSLSASVGDRVTITCQASQNISNFLDWYQQKPGKAPNLLIYDASDLDPGVPSRFSGSGSGTDFTFTISSLQPEDIATYYCQQYVSLPLTFGGGTKVEIK |
| – | – | – | – | – | – | 24 | 0.00724 | 300000 | anti-c-fms hybridoma antibody 2.550 (antibody, IgG2, V domains shown, Hybridoma IgG2 (cohort 2)) VH: QVQLVQSGAEVKKPGASVKVSCKASGYTLTSYGISWVRQAPGQGLEWMGWISAYNGNPNYAQKFQGRVTMTTDTSTSTAYMELRSLRSDDTAVYYCARDQGLLGFGELEGLFDYWGQGTLVTVSS VL: not shown |
| 0.027 | 0.067 | 0.047 | 4 | 10 | 7 | 23 | 0.0055 | 239000 | anti-c-fms hybridoma antibody 1.66 (antibody, IgG1, V domains shown, Hybridoma IgG1 (cohort 1); also called 1.66.1; 1.66.2) VH: QVQLVESGGGVVQPGRSLRLSCAASGFTFSSYGMHWVRQAPGKGLEWVAVIWYDGSNEYYADSVKGRFTISRDNSKSTLYLQMNSLRAEDTAVYYCAHSSGNYYDMDVWGQGTTVTVSS VL: not shown |
| 0.007 | < 0.007 | 0.04 | 1 | < 1 | 6 | 4.6 | 0.000703 | 153000 | anti-c-fms hybridoma antibody 1.134 (antibody, IgG1, V domains shown, Hybridoma IgG1 (cohort 1); also called 1.134.1) VH: QVQLVESGGGVVQPGRSLRLSCAASGFTFSSYGMHWVRQAPGKGLEWVAVIWYDGSNKYYADSVKGRFTISRDNSKNTLYLQMNSLRAEDTAVYYCASSSWSYYGMDVWGQGTTVTVSS VL: DIQMTQSPSSLSASVGDRVTITCQASQDINNYLNWYQQKPGKAPKLLIYDASNLEIGVPSRFSGSGSGTDFIFTISSLQPEDIATYYCQQYDNFPFTFGGGTKVEIK |
| – | – | – | – | – | – | 10 | 0.002 | 193000 | anti-c-fms hybridoma antibody 1.90 (antibody, IgG1, V domains shown, Hybridoma IgG1 (cohort 1); also called 1.90.2) VH: QVQLVESGGGVVQPGRSLRLSCAASGFTFSSYGMHWVRQAPGKGLEWVAVIWYDGSNKYYADSVKGRFTISRDNSKNTLYLQMNSLRAEDTAVYYCASSSSNFYDMDVWGQGTTVTVSS VL: DIQMTQSPSSLSASVGDRVTITCQASQDISNYLNWYQQKPGKAPKLLIYDASNLETGVPSRFSGSGSGTDFTFTISSLQPEDIATYYCQRYDDLPITFGQGTRLEIK |
| – | – | – | – | – | – | 41 | 0.00215 | 53100 | anti-c-fms hybridoma antibody 1.131 (antibody, IgG1, V domains shown, Hybridoma IgG1 (cohort 1); also called 1.131.1) VH: not shown VL: DNVMTQTPLSLSVTPGQPASISCKSSQSLLHSDGKTYLYWYLQKPGQPPQLLIYEASNRFSGVPDRFSGSGSGTDFTLKISRVEAEDVGVYYCMQSIQLPLTFGGGTKVEIK |
| 0.004 | 0.013 | – | 0.6 | 2 | – | 2.5 | 0.00064 | 255000 | anti-c-fms hybridoma antibody 1.64 (antibody, IgG1, V domains shown, Hybridoma IgG1 (cohort 1); also called 1.64.1; 1.64.2) VH: EVQLVESGGGLVQPGGSLRLSCAASGFTFSSYDMHWVRQATGKGLEWVSGIGTAGDTYYPGSVKGRFNISRENAKNSLYLQMNSLRAGDTAVYYCAREGSWYGFDYWGQGTLVTVSS VL: EIVLTQSPGTLSLSPGERATLSCRASQSVSSGYLAYLAWYQQKPGQAPRLLIYGASSTATGIPDRFSGSGSGTDFTLTISRLEPEDFAVYYCQQYGSSPITFGQGTRLEIK |
| – | – | – | – | – | – | 6.4 | 0.000773 | 120000 | anti-c-fms hybridoma antibody 1.13 (antibody, V domains shown, Hybridoma IgG1 (cohort 1)) VH: QVQLQESGPGLVKPSETLSLTCTVSGGSVSSGGYYWSWIRQPPGKGLEWIGYIYYSGSTNYNPSLKSRVTISVDTSKNQFSLKLSSVTAADTAVYYCAAGIAATGTLFDCWGQGTLVTVSS VL: DIQMTQSPSSLSASVGDRVTITCQASQDISNYLNWYQQKPGKAPKLLIYDASNLETGVPSRFSGSGSGTDFTFIISSLQPEDIATYYCQQFDNLPPTFGGGTKVESK |
| – | – | – | – | – | – | 5.5 | 0.000568 | 103000 | anti-c-fms hybridoma antibody 1.72 (antibody, IgG1, V domains shown, Hybridoma IgG1 (cohort 1); also called 1.72.2) VH: EVQLVESGGGLVEPGGSLRLSCAASGFTFSTAWMSWVRQAPGKGLEWVGRIKSKTDGGTTDYAAPVKGRFTISRDDSKNTLYLQMNSLKNEDTAVYYCTTEGPYSNYGYYYYGVDVWGQGTTVTVSS VL: not shown |
| – | – | – | – | – | – | 14 | 0.00138 | 100000 | anti-c-fms hybridoma antibody 2.369 (antibody, IgG2, V domains shown, Hybridoma IgG2 (cohort 2); also called 2.369.3) VH: QVQLVQSGAEVKKPGASVKVSCKVSGYTLTELSMHWVRQAPGKGLEWMGGFDPEDGETIYAQKFQGRVTMTEDTSTDTAYMELSSLRSEDTAVYYCATRAGTTLAYYYYAMDVWGQGTTVTVSS VL: DIQMTQSPSSLSASVGDRVTITCRASQSISRYLNWYQQKPGKAPNLLIHAASSLQSGVPSRFSGSGSGTDFTLTISSLQPEDFATYYCQQSYITPPSFGQGTKLEIK |
| – | – | – | – | – | – | ≤ 0.2 | ≤ 1e-05 | 43000 | anti-c-fms hybridoma antibody 2.131 (antibody, IgG2, V domains shown, Hybridoma IgG2 (cohort 2); also called 2.131.2) VH: QVQLQESGPGLVKPSETLSLTCTVSGGSISNYYWSWIRQSAGKGLEWIGRIYTSGSTHYNPSLKSRIIMSVDTSKNQFSLKLSSVTAADTAVYYCARDRVFYGMDVWGQGTTVTVSS VL: DIQMTQSPSSLSASVGDRVTITCRASQGFSNYLAWYQQKPGKVPKLLIYAASTLQSGVPSRFSGSGSGTDFTLTISSLQPEDVATYYCQKYNSAPLTFGGGTKVEIK |
| 0.02 | 0.067 | 0.2 | 3 | 10 | – | 1.6 | 0.00107 | 660000 | anti-c-fms hybridoma antibody 1.42 (antibody, IgG1, V domains shown, Hybridoma IgG1 (cohort 1); also called 1.42.3) VH: QVQLVQSGAEVKKPGASVKVSCKASGYTFTSYGISWVRQAPGQGLEWMGWISAYNGNTNYAQKLQGRVTMTTDTSTSTAYMELRSLRSDDTAVYYCARESWFGEVFFDYWGQGTLVTVSS VL: not shown |
| 0.006 | < 0.007 | 0.04 | 0.9 | < 1 | 6 | 1.4 | 0.00113 | 817000 | anti-c-fms hybridoma antibody 1.2 (antibody, V domains shown, Hybridoma IgG1 (cohort 1); also called 1.2.1) VH: QVQLVQSGAEVKKPGASVKVSCKASGYTFTSYGISWVRQAPGQGLEWMGWISAYNGNTNYAQKLQGRVTMTTDTSTSTAYMELRSLRSDDTAVYYCARESWFGEVFFDYWGQGTLVTVSS VL: not shown |
| 0.04 | 0.067 | 0.267 | 6 | 10 | 10 | 3.4 | 0.0014 | 406000 | anti-c-fms hybridoma antibody 1.30 (antibody, IgG1, V domains shown, Hybridoma IgG1 (cohort 1); also called 1.30.2; 1.30.3) VH: QVQLVQSGAEVKKPGASVKVSCKASGYTFTSYGISWVRQAPGQGLEWMGWISAYNGNTNYAQKLQGRVTMTTDTSTSTAYMELRSLRSDDTAVYYCARESWFGEVFFDYWGQGTLVTVSS VL: not shown |
| – | – | – | – | – | – | 1.2 | 0.000116 | 98900 | anti-c-fms hybridoma antibody 1.33.1.1 (antibody, IgG1, V domains shown, Hybridoma IgG1 (cohort 1)) VH: not shown VL: DIQMTQSPSSLSASVGDRVTITCRASQSISDYLNWYQQKPGKAPNLLIYAASSLQSGVPSRFSGSGSGTDFTLTISSLQPEDFATYFCQQTYSDPFTFGPGTKVDIK |
| 0.02 | 0.047 | – | 3 | 7 | – | 43 | 0.015 | 345000 | anti-c-fms hybridoma antibody 2.534 (antibody, IgG2, V domains shown, Hybridoma IgG2 (cohort 2); also called 2.534.1; 2.534.2) VH: QVQLQESGPGLVKPSQTLSLTCTVSGGSISSGGYYWSWIRQHPGKGLEWIGYISYSGDTYYNPSLKSRLTISVDTSKHQFSLRLSSVTSADTAVYYCASLDLYGDYFDYWGQGTLVTVSS VL: EIVLTQSPDFQSVTPKEKVTITCRASQYIGSSLHWYQQTPDQSPKLLINYVSQSFSGVPSRFSGSGSGTDFTLTINSLEAEDAATYYCHQSSSLPFTFGPGTKVDIK |
| – | – | – | – | – | – | 9.5 | 0.0016 | 168000 | anti-c-fms hybridoma antibody 2.65 (antibody, IgG2, V domains shown, Hybridoma IgG2 (cohort 2); also called 2.65.2) VH: not shown VL: DIQMTQSPSSLSASVGDRVTITCQASQDINNYLNWYQQKPGKAPKLLIYDASNLETGVPSRFSGSGSGTDFTFTISSLQPEDIATYYCQQYDDLLTFGGGTKVEIK |
| – | – | – | – | – | – | 23 | 0.00296 | 129000 | anti-c-fms hybridoma antibody 1.16 (antibody, IgG1, V domains shown, Hybridoma IgG1 (cohort 1)) VH: not shown VL: DIQMTQSPSSLSASVGDRVTITCQASQDISNYLNWYQQKPGKAPKFLIYDASNLETGVPSRFSGSGSGTDFTFTISSLQPEDIATYYCQQYDNLITFGQGTRLEIK |
| 0.02 | 0.133 | – | 5 | 20 | – | 0.7 | 5.28e-05 | 74900 | anti-c-fms hybridoma antibody 2.508 (antibody, IgG2, V domains shown, Hybridoma IgG2 (cohort 2); also called 2.508.1; 2.508.2) VH: QVQLVQSGAEVKKPGASVKVSCKVSGYTLTELSMHWVRQAPGKGLEWMGGFDPEDGETIYAQKFQGRVTMTEDTSTDTAYMELSSLRSEDTAVYYCATAGLEIRWFDPWGQGTLVTVSS VL: DIVMTQSPLSLPVTPGEPASISCRSSQSLLHSNGYNYLDWYLQKPGQSPQFLIYLGSIRASGVPDRFSGSGSGTDFALTISRVEAEDVGVYYCMQALQTPRTFGQGTKVEIK |
